Results published in publication doi:10.1101/2020.07.27.223255, “Bro1 stimulates Vps4 activity to promote Intralumenal Vesicle Formation during Multivesicular Body biogenesis” (bioRxiv, 2020).

Assays:
His6-Vps4 [1] = molecular target: T1, His6-Vps4 (S. cerevisiae, UniProt P52917 1-437); test: cell-based or functional assay
T1 sequence (looked up): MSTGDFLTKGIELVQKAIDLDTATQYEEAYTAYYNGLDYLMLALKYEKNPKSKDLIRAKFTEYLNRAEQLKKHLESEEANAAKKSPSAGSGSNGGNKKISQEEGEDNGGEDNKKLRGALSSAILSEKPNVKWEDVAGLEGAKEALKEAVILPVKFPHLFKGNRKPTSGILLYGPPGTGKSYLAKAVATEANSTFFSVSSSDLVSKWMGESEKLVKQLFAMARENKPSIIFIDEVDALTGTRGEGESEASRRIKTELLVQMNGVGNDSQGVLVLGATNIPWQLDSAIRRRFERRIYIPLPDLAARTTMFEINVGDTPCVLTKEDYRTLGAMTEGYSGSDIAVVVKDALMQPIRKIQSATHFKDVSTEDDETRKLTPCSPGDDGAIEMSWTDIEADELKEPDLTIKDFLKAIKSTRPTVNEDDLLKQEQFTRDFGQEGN

His6-Vps4 [2] = molecular target: T1, His6-Vps4; test: pull-down; His6-Vps4 (10 μg) or His6-MIT on Ni-NTA agarose; 6 μg Bro1V or mutants in ATPase buffer + 0.02% Tween20, 1 hour at 30°C; four washes NiA buffer with 10 mM imidazole; eluted with 200 mM imidazole; protein stain and anti-Bro1 immunoblot; conditions: both partners purified

B1: Bro1 V domain (Bro1V, aa 370-709), GST tag removed (domain or fragment, S. cerevisiae, UniProt P48582 370-709, looked up)
chain: DVYEKESIYSEEKATLLRKQVEETETANLEYSSFIEFTNLPRLLSDLEKQFSDGNIFSNTDTQGQLMRDQIQTWCKFIQTNEFRDIEEQMNKIVFKRKQILEILSALPNDQKENVTKLKSSLVAASNSDEKLFACVKPHIVEINLLNDNGKIWKKFDEFNRNTPPQPSLLDIDDTKNDKILELLKQVKGHAEDLRTLKEERSRNLSELRDEINNDDITKLLIINKGKSDVELKDLFEVELEKFEPLSTRIEATIYKQSSMIDDIKAKLDEIFHLSNFKDKSSGEEKFLEDRKNFFDKLQEAVKSFSIFASDLPKGIEFYDSLFNMSRDLAERVRVAKQTE
Vps4 (0.5μM) ATPase activity with titration of Bro1V (10nM-8μM): maximal stimulation over basal activity (Vps4 of the ATPase assay came from GST-Vps4) (His6-Vps4 [1]): 2.6 fold

B2: Bro1V^M4 (V505A, H508A, I512A), GST tag removed (domain or fragment, S. cerevisiae, UniProt P48582 370-709, looked up)
chain: DVYEKESIYSEEKATLLRKQVEETETANLEYSSFIEFTNLPRLLSDLEKQFSDGNIFSNTDTQGQLMRDQIQTWCKFIQTNEFRDIEEQMNKIVFKRKQILEILSALPNDQKENVTKLKSSLVAASNSDEKLFACAKPAIVEANLLNDNGKIWKKFDEFNRNTPPQPSLLDIDDTKNDKILELLKQVKGHAEDLRTLKEERSRNLSELRDEINNDDITKLLIINKGKSDVELKDLFEVELEKFEPLSTRIEATIYKQSSMIDDIKAKLDEIFHLSNFKDKSSGEEKFLEDRKNFFDKLQEAVKSFSIFASDLPKGIEFYDSLFNMSRDLAERVRVAKQTE
notes: Bro1 V domain, S. cerevisiae, aa 370-709, mutant M4; source: E. coli BL21-DE3, purified (Glutathione Sepharose 4B, AcTEV protease to remove GST, Superdex200 size exclusion)
binding result (His6-Vps4 [2]): binds

B3: Bro1V^M8 (E686A, L691D), GST tag removed (domain or fragment, S. cerevisiae, UniProt P48582 370-709, looked up)
chain: DVYEKESIYSEEKATLLRKQVEETETANLEYSSFIEFTNLPRLLSDLEKQFSDGNIFSNTDTQGQLMRDQIQTWCKFIQTNEFRDIEEQMNKIVFKRKQILEILSALPNDQKENVTKLKSSLVAASNSDEKLFACVKPHIVEINLLNDNGKIWKKFDEFNRNTPPQPSLLDIDDTKNDKILELLKQVKGHAEDLRTLKEERSRNLSELRDEINNDDITKLLIINKGKSDVELKDLFEVELEKFEPLSTRIEATIYKQSSMIDDIKAKLDEIFHLSNFKDKSSGEEKFLEDRKNFFDKLQEAVKSFSIFASDLPKGIAFYDSDFNMSRDLAERVRVAKQTE
notes: Bro1 V domain, S. cerevisiae, aa 370-709, mutant M8; source: E. coli BL21-DE3, purified (Glutathione Sepharose 4B, AcTEV protease to remove GST, Superdex200 size exclusion)
binding result (His6-Vps4 [2]): binds

B4: Bro1V^M9 (T587D), GST tag removed (domain or fragment, S. cerevisiae, UniProt P48582 370-709, looked up)
chain: DVYEKESIYSEEKATLLRKQVEETETANLEYSSFIEFTNLPRLLSDLEKQFSDGNIFSNTDTQGQLMRDQIQTWCKFIQTNEFRDIEEQMNKIVFKRKQILEILSALPNDQKENVTKLKSSLVAASNSDEKLFACVKPHIVEINLLNDNGKIWKKFDEFNRNTPPQPSLLDIDDTKNDKILELLKQVKGHAEDLRTLKEERSRNLSELRDEINNDDIDKLLIINKGKSDVELKDLFEVELEKFEPLSTRIEATIYKQSSMIDDIKAKLDEIFHLSNFKDKSSGEEKFLEDRKNFFDKLQEAVKSFSIFASDLPKGIEFYDSLFNMSRDLAERVRVAKQTE
notes: Bro1 V domain, S. cerevisiae, aa 370-709, mutant M9; source: E. coli BL21-DE3, purified (Glutathione Sepharose 4B, AcTEV protease to remove GST, Superdex200 size exclusion)
binding result (His6-Vps4 [2]): binds

B5: Bro1V^M10 (K481D), GST tag removed (domain or fragment, S. cerevisiae, UniProt P48582 370-709, looked up)
chain: DVYEKESIYSEEKATLLRKQVEETETANLEYSSFIEFTNLPRLLSDLEKQFSDGNIFSNTDTQGQLMRDQIQTWCKFIQTNEFRDIEEQMNKIVFKRKQILEILSALPNDQDENVTKLKSSLVAASNSDEKLFACVKPHIVEINLLNDNGKIWKKFDEFNRNTPPQPSLLDIDDTKNDKILELLKQVKGHAEDLRTLKEERSRNLSELRDEINNDDITKLLIINKGKSDVELKDLFEVELEKFEPLSTRIEATIYKQSSMIDDIKAKLDEIFHLSNFKDKSSGEEKFLEDRKNFFDKLQEAVKSFSIFASDLPKGIEFYDSLFNMSRDLAERVRVAKQTE
notes: Bro1 V domain, S. cerevisiae, aa 370-709, mutant M10; source: E. coli BL21-DE3, purified (Glutathione Sepharose 4B, AcTEV protease to remove GST, Superdex200 size exclusion)
binding result (His6-Vps4 [2]): binds
